Numbering of substitutions follows the chain as printed. Where a SMILES comes first, the peptide text is derived from it.
Experiments:
[1] = biological target: T1, MFSD1–GLMP oocytes (MFSD1L11A/L12A-EmGFP + GLMPY400A-mKate2) (Mus musculus, UniProt Q9DC37, L11A/L12A); assay: TEVC competition with Lys–Ala current in oocytes; format: cell-based
T1 construct: heterodimer at plasma membrane of Xenopus laevis oocytes; lysosomal sorting mutants; EmGFP and mKate2 fusions; with Glycosylated lysosomal membrane protein
T1 sequence (Q9DC37 1-464 L11A/L12A): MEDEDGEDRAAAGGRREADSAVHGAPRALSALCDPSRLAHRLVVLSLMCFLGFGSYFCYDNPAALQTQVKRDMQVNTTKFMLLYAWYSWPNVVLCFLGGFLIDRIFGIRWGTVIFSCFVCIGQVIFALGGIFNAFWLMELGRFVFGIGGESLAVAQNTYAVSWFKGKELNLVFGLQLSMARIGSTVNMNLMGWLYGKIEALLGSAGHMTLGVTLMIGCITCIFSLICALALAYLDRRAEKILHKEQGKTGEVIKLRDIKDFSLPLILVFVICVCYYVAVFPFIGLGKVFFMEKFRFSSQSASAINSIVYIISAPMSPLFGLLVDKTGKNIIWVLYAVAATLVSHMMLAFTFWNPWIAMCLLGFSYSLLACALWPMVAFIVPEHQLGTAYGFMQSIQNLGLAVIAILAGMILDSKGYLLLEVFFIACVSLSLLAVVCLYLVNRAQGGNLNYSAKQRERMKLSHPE
T1 sequence (Q9JHJ3 36-404 Y400A partner): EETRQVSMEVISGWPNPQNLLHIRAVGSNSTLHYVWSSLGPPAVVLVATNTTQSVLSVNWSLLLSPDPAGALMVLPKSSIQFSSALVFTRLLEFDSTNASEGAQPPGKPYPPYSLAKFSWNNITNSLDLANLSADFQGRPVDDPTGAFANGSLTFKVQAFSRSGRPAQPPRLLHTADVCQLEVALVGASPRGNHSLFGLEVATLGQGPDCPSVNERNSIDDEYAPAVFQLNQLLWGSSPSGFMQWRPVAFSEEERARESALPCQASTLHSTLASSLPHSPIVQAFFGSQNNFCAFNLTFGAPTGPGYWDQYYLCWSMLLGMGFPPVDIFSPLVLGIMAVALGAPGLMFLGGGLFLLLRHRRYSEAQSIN

[2] = biological target: T2, MFSD1 (MFSD1WT, mmMFSD1, MFSD1-strep) (Mus musculus, UniProt Q9DC37); assay: nanoDSF thermal shift titration; format: binding
T2 construct: full length; N-terminal Twin-Strep-tag + HRV 3C site; Expi293F; purified in DDM/CHS; liposomes POPE:POPG:CHS for transport
T2 sequence (Q9DC37 1-464): T1 sequence (Q9DC37 1-464 L11A/L12A) with A11L, A12L

[3] = biological target: GLMP + MFSD1 co-complex (co-expressed MFSD1-strep and GLMP-Ct-His-GFP, purified) (mouse) (UniProt Q9DC37)
[4] = biological target: MFSD1-strep (mouse major facilitator superfamily domain containing 1 protein with N-terminal Twin-Strep-tag) (mouse) (UniProt Q9DC37); assay: nanoDSF thermal shift; protein 0.2 mg/ml in 100 mM HEPES pH 7.5, 150 mM NaCl, 0.03% DDM, 0.003% CHS; 5 mM ligand, 30 min at room temperature; 20 to 95 °C at 1 °C/min (Prometheus NT.48)
[5] = biological target: Ala-His; assay: nanoDSF thermal stability assay; details: 5 mM peptide, n = 3, apo Tm of WT est. 40 °C, parent: est. 40, read off a plot
[6] = biological target: Ala–Ala dipeptide; assay: nanoDSF thermal stability assay; details: 5 mM peptide, n = 3, apo Tm of WT est. 40 °C, parent: est. 41, read off a plot
[7] = biological target: Anserine; assay: nanoDSF thermal stability assay; details: 5 mM peptide, n = 3, apo Tm of WT est. 40 °C, parent: est. 40, read off a plot
[8] = biological target: Arg–Pro dipeptide; assay: nanoDSF thermal stability assay; details: 5 mM peptide, n = 3, apo Tm of WT est. 40 °C, parent: est. 42, read off a plot
[9] = biological target: His-Ser dipeptide; assay: nanoDSF thermal stability assay; details: 5 mM peptide, n = 3, apo Tm of WT est. 40 °C, parent: est. 40, read off a plot
[10] = biological target: His–Ala dipeptide; assay: nanoDSF thermal stability assay; details: 5 mM peptide, n = 3, apo Tm of WT est. 40 °C, parent: est. 41, read off a plot
[11] = biological target: Leu–Ala dipeptide; assay: nanoDSF thermal stability assay; details: 5 mM peptide, n = 3, apo Tm of WT est. 40 °C, parent: est. 47, read off a plot
[12] = biological target: Lys–Val dipeptide; assay: nanoDSF thermal stability assay; details: 5 mM peptide, n = 3, apo Tm of WT est. 40 °C, parent: est. 46, read off a plot
[13] = biological target: Pro–Arg dipeptide; assay: nanoDSF thermal stability assay; details: 5 mM peptide, n = 3, apo Tm of WT est. 40 °C, parent: est. 49, read off a plot
[14] = apo Tm of this mutant est. 36 °C
[15] = apo Tm of this mutant est. 37 °C
[16] = apo Tm of this mutant est. 42 °C
[17] = apo Tm of this mutant est. 47 °C
[18] = apo Tm of this mutant est. 39 °C

MFSD1-strep (mouse major facilitator superfamily domain containing 1 protein with N-terminal Twin-Strep-tag) (from UniProt Q9DC37) Q176K, sequence (Q9DC37 whole entry Q176K, looked up, the tested form may be a part): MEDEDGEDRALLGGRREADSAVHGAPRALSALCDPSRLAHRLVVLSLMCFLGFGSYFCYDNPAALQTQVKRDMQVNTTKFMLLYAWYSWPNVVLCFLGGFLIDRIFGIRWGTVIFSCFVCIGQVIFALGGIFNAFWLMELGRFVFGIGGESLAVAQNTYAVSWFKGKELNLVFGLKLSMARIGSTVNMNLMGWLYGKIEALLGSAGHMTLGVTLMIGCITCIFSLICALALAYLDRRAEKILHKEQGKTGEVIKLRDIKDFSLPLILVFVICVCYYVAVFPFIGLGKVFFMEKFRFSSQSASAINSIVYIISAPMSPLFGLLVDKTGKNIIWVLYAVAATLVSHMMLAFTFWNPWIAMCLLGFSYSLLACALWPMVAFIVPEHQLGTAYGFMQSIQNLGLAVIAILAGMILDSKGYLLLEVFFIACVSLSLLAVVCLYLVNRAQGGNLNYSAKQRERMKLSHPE
MFSD1-strep (mouse major facilitator superfamily domain containing 1 protein with N-terminal Twin-Strep-tag) (from UniProt Q9DC37) Q176A, sequence (Q9DC37 whole entry Q176A, looked up, the tested form may be a part): as the sequence (Q9DC37 whole entry Q176K, looked up, the tested form may be a part) above, with K176A counted along it
MFSD1-strep (mouse major facilitator superfamily domain containing 1 protein with N-terminal Twin-Strep-tag) (from UniProt Q9DC37) Y56A, sequence (Q9DC37 whole entry Y56A, looked up, the tested form may be a part): as the sequence (Q9DC37 whole entry Q176K, looked up, the tested form may be a part) above, with Y56A, K176Q counted along it
MFSD1-strep (mouse major facilitator superfamily domain containing 1 protein with N-terminal Twin-Strep-tag) (from UniProt Q9DC37) W373A, sequence (Q9DC37 whole entry W373A, looked up, the tested form may be a part): as the sequence (Q9DC37 whole entry Q176K, looked up, the tested form may be a part) above, with K176Q, W373A counted along it
MFSD1-strep (mouse major facilitator superfamily domain containing 1 protein with N-terminal Twin-Strep-tag) (from UniProt Q9DC37) Q176E, sequence (Q9DC37 whole entry Q176E, looked up, the tested form may be a part): as the sequence (Q9DC37 whole entry Q176K, looked up, the tested form may be a part) above, with K176E counted along it

## C[C@H](N)C(=O)N[C@@H](C)C(=O)O [Ala–Ala] (H-Ala-Ala-OH)
[1]; read-out: % inhibition at 20 mM
  inhibition at 20000 µM: 66 ± 3%

## N[C@@H](CCC(=O)O)C(=O)N[C@@H](CO)C(=O)O [Glu–Ser] (H-Glu-Ser-OH)
[1]; read-out: % inhibition at 10 mM
  inhibition at 10000 µM: 26 ± 3%

## NCCCC[C@H](NC(=O)[C@@H](N)Cc1c[nH]cn1)C(=O)O [His–Lys] (H-His-Lys-OH)
[2]
  Kd: 765 ± 136 µM

## CC(C)C[C@H](N)C(=O)N[C@@H](C)C(=O)O [Leu–Ala] (H-Leu-Ala-OH)
[2]
  Kd: 2200 ± 420 µM

## CC(C)[C@H](NC(=O)[C@@H](N)CCCCN)C(=O)O [Lys–Val] (H-Lys-Val-OH)
[2]
  Kd: 4300 ± 600 µM

## N=C(N)NCCC[C@H](NC(=O)[C@@H]1CCCN1)C(=O)O [Pro–Arg] (H-Pro-Arg-OH)
[2]
  Kd: 318 ± 66.7 µM

## Glu–Ser dipeptide
[3]
  inhibition of the current evoked by 3 mM Lys–Ala in MFSD1–GLMP oocytes (TEVC, pH 5.0) by 10 mM Glu–Ser applied simultaneously: 26%

## His–Lys dipeptide
[4]
  ΔTm at 5 mM ligand: 12 °C

## Leu–Leu dipeptide
[4]
  ΔTm at 5 mM ligand: 14 °C

## Lys–Ala dipeptide
[3]
  KM of the Lys–Ala-evoked inward current in MFSD1–GLMP oocytes (TEVC, −40 mV, pH 5.0): 2.6 mM

## MFSD1-strep (mouse major facilitator superfamily domain containing 1 protein with N-terminal Twin-Strep-tag) (from UniProt Q9DC37) Q176A
[5]; [14]
  other: Tm: 36 °C
[6]; [14]
  other: Tm: 40 °C
[7]; [14]
  other: Tm: 36 °C
[8]; [14]
  other: Tm: 48 °C
[9]; [14]
  other: Tm: 37 °C
[10]; [14]
  other: Tm: 42 °C
[11]; [14]
  other: Tm: 48 °C
[12]; [14]
  other: Tm: 49 °C
[13]; [14]
  other: Tm: 59 °C

## MFSD1-strep (mouse major facilitator superfamily domain containing 1 protein with N-terminal Twin-Strep-tag) (from UniProt Q9DC37) Q176E
[5]; [15]
  other: Tm: 40 °C
[6]; [15]
  other: Tm: 42 °C
[7]; [15]
  other: Tm: 40 °C
[8]; [15]
  other: Tm: 48 °C
[9]; [15]
  other: Tm: 40 °C
[10]; [15]
  other: Tm: 44 °C
[11]; [15]
  other: Tm: 52 °C
[12]; [15]
  other: Tm: 49 °C
[13]; [15]
  other: Tm: 51 °C

## MFSD1-strep (mouse major facilitator superfamily domain containing 1 protein with N-terminal Twin-Strep-tag) (from UniProt Q9DC37) Q176K
[5]; [16]
  other: Tm: 43 °C
[6]; [16]
  other: Tm: 46 °C
[7]; [16]
  other: Tm: 43 °C
[8]; [16]
  other: Tm: 42 °C
[9]; [16]
  other: Tm: 45 °C
[10]; [16]
  other: Tm: 49 °C
[11]; [16]
  other: Tm: 53 °C
[12]; [16]
  other: Tm: 43 °C
[13]; [16]
  other: Tm: 42 °C

## MFSD1-strep (mouse major facilitator superfamily domain containing 1 protein with N-terminal Twin-Strep-tag) (from UniProt Q9DC37) W373A
[5]; [17]
  other: Tm: 47 °C
[6]; [17]
  other: Tm: 47 °C
[7]; [17]
  other: Tm: 47 °C
[8]; [17]
  other: Tm: 46 °C
[9]; [17]
  other: Tm: 47 °C
[10]; [17]
  other: Tm: 47 °C
[11]; [17]
  other: Tm: 47 °C
[12]; [17]
  other: Tm: 47 °C
[13]; [17]
  other: Tm: 47 °C

## MFSD1-strep (mouse major facilitator superfamily domain containing 1 protein with N-terminal Twin-Strep-tag) (from UniProt Q9DC37) Y56A
[5]; [18]
  other: Tm: 42 °C
[6]; [18]
  other: Tm: 41 °C
[7]; [18]
  other: Tm: 42 °C
[8]; [18]
  other: Tm: 42 °C
[9]; [18]
  other: Tm: 42 °C
[10]; [18]
  other: Tm: 42 °C
[11]; [18]
  other: Tm: 45 °C
[12]; [18]
  other: Tm: 45 °C
[13]; [18]
  other: Tm: 44 °C

## Pro–Arg dipeptide
[4]
  ΔTm at 5 mM ligand: 12.1 °C

From publication PMC11252000, “MFSD1 with its accessory subunit GLMP functions as a general dipeptide uniporter in lysosomes” (Nature Cell Biology, 2024)
